In publication PMC7970304, “The Effects of Apelin and Elabela Ligands on Apelin Receptor Distinct Signaling Profiles” (Frontiers in Pharmacology, 2021):
No end group written: not given here.

What was measured:
[1] = molecular target: Apelin receptor (APJ) (UniProt P35414); assay: radioligand binding; competition binding: HEK-293/APJ membrane preparation 20 μg/well, 0.1 nM [125I]-apelin-13, test peptides in 5-fold dilutions starting at 10 µM; 50 mM HEPES pH 7.4, 5 mM MgCl2, 1 mM CaCl2, 0.2% BSA; 30°C, 2 h; Ki calculated from IC50
[2] = molecular target: APJ-Venus (UniProt P35414)
[3] = molecular target: Apelin receptor (APJ) (UniProt P35414)
[4] = molecular target: APJ-Renilla luciferase (Rluc) (UniProt P35414)
[5] = test system: APJ; details: cited from earlier work
Description: (§1) Elabela (also known as apela or toddler), which has little sequence homology with Apelin, has recently been identified as the second endogenous APJ ligand. […] Elabela is highly expressed during embryogenesis and in adult kidney. Elabela is also derived from a precursor of 54 amino acids.

[6] = test system: pulmonary arterial hypertension (PAH); set-up: method as in Yang et al., 2017; details: exogenous peptide; ref Yang et al., 2017; cited from earlier work
[7] = test system: APJ; details: ERK1/2-dependent; ref Perjés et al., 2016; cited from earlier work
Description: as §1, with “acids. Its 13 C-terminal amino acids are highly conserved among all spe ...” for “acids.”

[8] = molecular target: T1, APJ (Apelin receptor) (Homo sapiens, UniProt P35414); assay: Radioligand competition binding assay, [125I]-apelin-13, HEK-293/APJ membranes; set-up: APJ membrane preparations were obtained from transiently transfected HEK293 cells; host or cells: HEK293 cells, transiently transfected; membranes prepared
T1 sequence (P35414 1-380): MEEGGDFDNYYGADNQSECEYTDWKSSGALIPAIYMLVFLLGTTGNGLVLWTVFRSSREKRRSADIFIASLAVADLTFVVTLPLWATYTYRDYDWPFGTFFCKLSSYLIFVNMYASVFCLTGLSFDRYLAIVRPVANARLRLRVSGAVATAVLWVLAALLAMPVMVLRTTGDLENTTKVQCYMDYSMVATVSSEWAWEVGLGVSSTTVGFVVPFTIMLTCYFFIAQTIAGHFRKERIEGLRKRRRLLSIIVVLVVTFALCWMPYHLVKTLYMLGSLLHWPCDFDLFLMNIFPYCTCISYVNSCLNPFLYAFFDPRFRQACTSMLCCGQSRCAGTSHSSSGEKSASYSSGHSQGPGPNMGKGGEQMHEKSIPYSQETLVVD
Description: APJ membrane preparations were obtained from transiently transfected HEK293 cells. HEK293 cells were cultured in complete DMEM (DMEM plus 10% FBS) for 24 h, until they reached at least 70% confluence. Transfection reagent containing 20 μg of the APJ expression plasmid was added, and the cells were incubated for another 24 h. The cells were then harvested into 25 ml homogenization buffer (HB) [250 mM sucrose and 25 mM HEPES (pH 7.3); adjusted to pH 7.5 at 4°C and then filtered] supplemented with 250 μL phenylmethylsulfonyl fluoride (PMSF), homogenized using an IKA T25 Ultra Turrax (24,000 rpm), and centrifuged at 6,025 rpm for 15 min at 4°C. […]
The binding reaction was stopped by rapid filtration through polyethyleneimine (PEI)-coated GF/B plates using a cell harvester, and the plates were washed three times with ice-cold wash buffer [50 mM HEPES (pH 7.4), 500 mM NaCl, and 0.1% BSA; filtered and stored at 4°C]. The filtration plates were dried at 37°C for 2 h; 50 μL scintillation cocktail (Perkin Elmer, Wellesley, MA, United States), was added to each well; and the radioactivity was measured using a Perkin Elmer 1450 MicroBeta TriLux Microplate Scintillation and Luminescence Counter.
The binding reaction was stopped, the plates were washed and dried, the scintillation cocktail was added, and the radioactivity was measured as described above.

[9] = test system: APJ; set-up: method as in Nyimanu et al., 2019; details: ref Nyimanu et al., 2019; cited from earlier work
[10] = test system: μ opioid receptor (MOR); details: ref Markham, 2020; cited from earlier work
Description: GPCR ligands were traditionally thought to act equally on all the downstream signaling pathways of the GPCRs, including the multiple signaling pathways mediated by G proteins and β-arrestin.

## Apelin-17 (peptide)
[1]
  IC50: 5.2 nM
[2]
  LogEC50 of the ligand-induced interaction of APJ with β-arrestin 1 (BRET between APJ-Venus and β-arrestin 1-Rluc, HEK293 cells): -7.9
  LogEC50 of the ligand-induced interaction of APJ with β-arrestin 2 (BRET between APJ-Venus and β-arrestin2-Rluc, HEK293 cells): -8.33
[3]
  LogEC50 of the ligand-induced interaction between β-arrestin 1 and AP2 (BRET between β-arrestin 1-Rluc and β2-adaptin-EYFP in HEK293 cells co-transfected with APJ, 30 min): -8.48
  LogEC50 of the ligand-induced interaction between β-arrestin 2 and AP2 (BRET between β-arrestin 2-Rluc and β2-adaptin-EYFP in HEK293 cells co-transfected with APJ, 30 min): -7.17
[4]
  LogEC50 of the ligand-induced recruitment of GRK2 to APJ (BRET between APJ-Rluc and GRK2-GFP2, HEK293 cells): -8.19
  LogEC50 of the ligand-induced recruitment of GRK5 to APJ (BRET between APJ-Rluc and GRK5-GFP2, HEK293 cells): -8.58

## Elabela
[5]; ref Peverelli et al., 2014
  APJ signaling (in words): inhibit cyclic AMP (cAMP) production, activate the extracellular signal-regulated kinases (ERK1/2), and mobilize intracellular calcium through APJ internalization
[6]
  effect in PAH in rats (in words): reduce the severity of cardiopulmonary remodeling and function in PAH in rats
[7]
  cardiac contractility (in words): increase cardiac contractility in an ERK1/2-dependent manner

## LVQPRGSRNGPGPWQGGRRKFRRQRPRLSHKGPMPF [Apelin-36]
[8]
  Ki: 1.74 nM

## Apelin-36-[L28A]: G protein biased APJ agonist (LVQPRGSRNGPGPWQGGRRKFRRQRPRASHKGPMPF; Apelin-36; UniProt Q9ULZ1 42-77, looked up, variant L28A)
[5]; ref Nyimanu et al., 2019
  signaling bias (in words): G protein biased APJ agonists
[9]
  binding to APJ (in words): nanomolar affinities

## COc1ccsc1CNCC[C@@]1(c2ccccn2)CCOC2(CCCC2)C1 [oliceridine]
[10]
  signaling bias at opioid receptor (in words): selective for G protein pathway, and the effect of β - arrestin recruitment is low
